In a protein production outcome set (Wang et al. 2014) one finds protein production data, which are given here for 8 sequences.

This data set is described as follows: label from the status in PepcDB records.
For the sequence “MTAPRYPRDMIGYGATPPNANWPGNARIAVQIVLNYEEGGENNILHGDAASEAFLSEIVGAAPWPGQRHWNMETIYEYGARAGFWRLHRLMRDLPVTVYGVATALARSPDQVAAMKSAGWEIASHGLKWVEHKDMPEEEERAQIAEAIRLHTEVTGSRPRGWYTGRCSMNTVRLASEAGIDYIADTYDDDLPYWKRIDGRDQLIVPYTLDCNDMRFATPQGFNSGDQFFAYLKDSFDALYAEGGEGAPKMLSIGLHCRLIGRPGRVMALKRFLDYARGHEDVWFATRLQIAEHWVREHPPVARTRPSEMPKADFVAAYGGIFEHSPWIAERAHGLELGPAHDTAGGLHNALCRMFRSASAEERLGVLTAHPDLAGKLAQAKRLTAESTSEQASAGLDALTDEERTTFTRLNTEYVARFGFPFIIAVRDHDKASILAAFQRRIGNDRETEFAEACRQVERIAEFRLRDVLPSLEHHHHHH”, the protein production result is “not failed”.
The value for “MENSLRSTLLDIVKGCIATVALFIAYLELPVIGMLAGVVVPLPALLYDLKRGKWSGLAIVLASALIFMLIAGPAGALLYVLQAGIFSLALPRFLTMGGGPARALASAVAVTVAVITAAAVGYGVTRGVTVEGQVAESLQSSITQAIQLYEKSGVSGADLDELREGMEQAAKSLAQLYPSLFVVGIAMAGGLNLLLLQRFGRRLGLAVPGGSFGKYRNPDHLVWLPICAGFALLAGHDAVTTIALNVLVLTGFLYFIQGMAIIIHLFDRYAAPAFLRYLLYFLLFVQAYLVVAVALFGLLDLWGNFRRPRIPTNL” was “failed”.
The value for “MENMIVIMAGGRSSRMGAEKPILKVNGKPMILRVYEESTKVGETLVAISKNTPKTRELCIKEGIPLIETPGEGYVEDVRYLLKELGSFVSVSADLPFVKACDIAEVKKAFDGKTSLTGVLPLSKVPTDLRPVVYKGYVIVGLNGVGFEGEKFYELSNPLLALNVNTPEELKLANRIAKLIGLEHHHHHH” was “failed”; that for “MNHEAVQNYYGEVLQSSADLQTNACCTPDAVPAHLKPVLGKLHDEVMARYYGCGLIAPLALEGARILDLGCGAGRDVYALSALVGESGAVVGVDMTPAQLEVAQAHRAYHAEVFGHAAPNTEFHQGYIEKLDDLPLKPGSFDIIVSNCVLNLATDKAAVLRGAQRLLKPGGEMYFSDVYADRRIPEALARDEVLYGECLSGALYWNDFLSLARGAGFGDPRMVESRLLTIENPELERRVGPIRFLSATYRLFNLAGLEPDCEDYGQAVIYKGTVPHAPHEFVLDDHHVIETGKVFPVCGNSWRMLAESRFAPHFQFIGDFSTHYGIFAGCGGASPFNGLSPVAPAASGGCC” was “failed”.
The value for “MGQKIHAFMFPWFAFGHMTPYLHLGNKLAEKGHRVTFLLPKKAQKQLEHQNLFPHGIVFHPLVIPHVDGLPAGAETASDIPISLVKFLSIAMDLTRDQIEAAIGALRPDLILFDLAHWVPEMAKALKVKSMLYNVMSATSIAHDLVPGGELGVAPPGYPSSKALYREHDAHALLTFSGFYKRFYHRFTTGLMNCDFISIRTCEEIEGKFCDYIESQYKKKVLLTGPMLPEPDKSKPLEDQWSHWLSGFGQGSVVFCALGSQTILEKNQFQELCLGIELTGLPFLVAVKPPKGANTIHEALPEGFEERVKGRGIVWGEWVQQPSWQPLILAHPSVGCFVSHCGFGSMWESLMSDCQIVFIPVLNDQVLTTRVMTEELEVSVEVQREETGWFSKENLSGAIMSLMDQDSEIGNQVRRNHSKLKETLASPGLLTGYTDKFVDTLENLVNEQGYIS” was “failed”.
“MAVRIVDDLQQLSLLLMFLSTFIFYRYLKKVKRERKLTGFEWTMYFVTQFATLIWAITYFIKHLAES”: the protein production result is recorded as “failed”.
To “MDKNEIGLNAGKVWQLLSNNDKWSYGNLKKKSGLKDKDLGAALGWLAREDKIEFEQEEEELYVYLCVNVYIGLEHHHHHH” belongs “failed”.
Consider “MVNPIATGILVLAALYFARSILMPLAFSLFVIALAWPIQMALQRRIPRLAALLITLLLVVLVIVIVGSAIVWGLGELSQWLFYNTGRLQAIYASWTDWLEGHGIAIVSPLGELFSISRLVGLTHSLVTRLNSVAGFAVLTFIFVMLGLLEAEDLQRRLRSSLAQPQGEMLLHIGREIAGKIRRFMVVRSLACILTGLVVWAFTLVAGLELASAWAAIAFALNYIPFIGPLMATIFPTLFAIAQSGSWQLALIVFVGLNVIQFAIGSYLEPFLTGASLAISPFAVMFAVFFWSFMWGVPGAFIGVPILIVVVTWCAHEQSTRWIATLLSGGRQST”, for which the protein production entry is “failed”.
